# Measured values published in patent US20190256595A1 (INSTITUT NATIONAL DE LA SANT ET DE LA RECHERCH M DICAL …, published 2019).
# Changes are numbered by the printed parent chain.
# T1: CD160 GPI-anchored isoform expressed on CHO cells (human, UniProt O95971 26-160, GPI anchor at the C terminus end)
# T1 construct: also called CHO-CD160-GPI
# T1 sequence: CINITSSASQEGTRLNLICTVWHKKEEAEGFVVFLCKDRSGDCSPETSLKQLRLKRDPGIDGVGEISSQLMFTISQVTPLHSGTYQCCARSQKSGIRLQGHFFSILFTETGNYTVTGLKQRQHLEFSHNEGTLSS
# T2: Flag-tagged CD160-TM isoform expressed on HEK cells (human)
# T2 construct: In the immunoprecipitation the protein came from a 1% NP40 lysate of these cells; Bands were read as mono-, di- and quadrimeric forms; also called HEK-CD160TM; Flag-tagged CD160TM receptor; not shown: Flag tag
# T2 chain: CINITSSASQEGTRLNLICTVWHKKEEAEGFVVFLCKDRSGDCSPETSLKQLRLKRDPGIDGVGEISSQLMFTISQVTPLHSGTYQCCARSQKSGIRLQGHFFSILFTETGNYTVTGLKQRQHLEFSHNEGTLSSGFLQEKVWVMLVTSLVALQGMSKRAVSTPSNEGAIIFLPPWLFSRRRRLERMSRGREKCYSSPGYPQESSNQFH
# T3: CD160-TM isoform (CD160 transmembrane isoform) (human)
# T3 chain: T2 chain
# T4: recombinant soluble CD160-His Tag (human, UniProt O95971 26-160)
# T4 construct: also called sCD160; CD160 soluble isoform; not shown: His tag
# T4 sequence: T1 sequence
# B1: A12 antibody (fully human A12 antibody) (antibody, human IgG1, V domains shown)
# VH: EVQLVESGGSLVKPGGSLRLSCAASGFTFSNYSMNWVRQAPGKGLEWISYIYGSSRYISYADFVKGRFTISRDNATNSLYLQMNSLRAEDTAVYYCVRSYYGGMDVWGRGTLVTVSS
# VL: QSVLTQPASVSGSPGQSITISCAGTSSDVGGYYGVSWYQQHPGKAPKLMIYYDSYRPSGVSNRFSGSKSGNTASLTISGLQAEDEADYYCSSSTYYSTRVFGGGTKLEK
# notes: Fully human aglycosylated antibody selected by phage display on HEK-CD160TM cells; also called hu A12
# B2: murine chimeric version of A12 antibody (antibody, V domains shown)
# VH: B1 VH
# VL: B1 VL
# notes: also called muA12; mu A12
# B3: B6 antibody (fully human B6 antibody) (antibody, human IgG1, V domains shown)
# VH: B1 VH with S33Y, Y50G, S59N
# VL: B1 VL with Y33S, G34Y, S93Y
# notes: From the same phage display selection as A12
# Key:
# [1] = molecular target: T1, CD160 GPI-anchored isoform expressed on …; assay: flow cytometry on CHO-CD160-GPI cells
# Description: (§1) CHO and HEK transfected cells were labelled with the anti-CD160-GPI mAb CL1-R2 or BY55, the fully human A12 or B6 antibody or their corresponding isotypic control IgG. […] Cell acquisition was performed on a CytoFlex cytometer and results were analysed with FlowJo software.
# (§2) After selection on HEK-CD160TM cells, A12 and B6 specificity for CD160TM isoform was first verified by flow cytometry on both CD160-GPI and CD160TM expressing transfectants. As shown on FIG. 1, a positive labelling was obtained with A12 and B6 antibodies on HEK-CD160TM cells but not on CHO-CD160-GPI cells. Conversely, the anti-CD160-GPI mAb CL1-R2 or BY55 gave a positive labelling only on CD160-GPI-expressing cells, ruling out the possibility that A12 and B6 negativity was linked to the non-expression of CD160-GPI on CHO transfectants.
# [2] = molecular target: T2, Flag-tagged CD160-TM isoform expressed …; assay: flow cytometry on HEK-CD160TM cells
# Description: as §1, §2
# [3] = molecular target: T3, CD160-TM isoform (CD160 transmembrane …); assay: flow cytometry on IL2-activated human PBMC, gated CD3-CD56+ NK cells
# Description: as §1
# For PBMC, CD160 labelling was performed as above. Following washes and addition of normal mouse serum, cells were incubated with a mix of CD8-FITC, CD56-PCS, CD3-APC and CD4-PC7 mAbs. After cell acquisition, analyses were performed to distinguish the CD3⁺CD4⁺ and CD3⁺CD8⁺ T lymphocytes, and the CD3⁻CD56⁺ NK cells within the lymphocytes population.
# [4] = molecular target: T4, recombinant soluble CD160-His Tag; assay: sandwich ELISA: coated antibody, soluble CD160-His, anti-His-HRP
# Description: FIG. 4: sCD160 is recognized by the antibodies CL1-R2, R&D 6700 and RB312 but not A12. 1 ug per well of antibody was coated overnight on a 96 well maxisorb plate. After saturation with PBS-5%BSA, lOng of recombinant soluble CD160-His Tag were added to each well and incubated 2h at room temperature. After washing, revelation was done with anti-His-HRP then TMB substrate.
# [5] = molecular target: T2, Flag-tagged CD160-TM isoform expressed …; assay: immunoprecipitation from HEK-CD160TM lysate, anti-Flag Western blot, non-reducing
# Description: FIG. 3: Assessment of A12 specificity by immunoprecipitation. Post-nuclear lysates were prepared from HEK-CD160TM cells and subjected to immunoprecipitation with either mouse (mu IgG) or human (hu Ig) isotypic control IgG, chimeric murine A12 (mu A12) or fully human A12 (hu A12) antibody. […] Arrows indicate CD160TM-related signals.
# HEK-CD160TM cells, that express a Flag-tagged version of CD160TM isoform, were lysed in 1% NP40 lysis buffer. Post-nuclear lysates were prepared and subjected to immuno-precipitation with the fully human A12 antibody or mouse chimeric A12. Human and mouse IgG were used as negative controls, respectively. Immune complexes were further collected with protein G Sepharose beads. Following washes, non-reducing sample buffer (devoid of reducing agent) was added and samples were finally heat-denatured. Proteins were separated by SDS-10% PAGE, electrically transferred on a nitrocellulose membrane and subjected to immuno-blotting with and anti-Flag mAb plus HRP-coupled goat anti-mouse IgGs. Revelation was performed by enhanced chemiluminescence and images acquired with an ImageQuant LAS device.
# [6] = molecular target: T4, recombinant soluble CD160-His Tag; assay: sandwich ELISA: coated antibody, soluble CD160-His, anti-His-HRP (data not shown)
binder,measurement,setting,value
B1,binding result,[1],no binding
same,binding result,[2],binds
same,binding result,[3],binds
same,binding result,[4],no binding
B2,binding result,[5],binds
B3,binding result,[6],no binding
same,binding result,[1],no binding
same,binding result,[2],binds
